Positions count from the first letter of the chain named. Numbers in names are those of the source.
B1: K140I (protein)
chain: MQLRNPELHLGCALALRFLALVSWDIPGARALDNGLARTPTMGWLHWERFMCNLDCQEEPDSCISEKLFMEMAELMVSEGWKDAGYEYLCIDDCWMAPQRDSEGRLQADPQRFPHGIRQLANYVHSKGLKLGIYADVGNITCAGFPGSFGYYDIDAQTFADWGVDLLKFDGCYCDSLENLADGYKHMSLALNRTGRSIVYSCEWPLYMWPFQKPNYTEIRQYCNHWRNFADIDDSWKSIKSILDWTSFNQERIVDVAGPGGWNDPDMLVIGNFGLSWNQQVTQMALWAIMAAPLFMSNDLRHISPQAKALLQDKDVIAINQDPLGKQGYQLRQGDNFEVWERPLSGLAWAVAMINRQEIGGPRSYTIAVASLGKGVACNPACFITQLLPVKRKLGFYEWTSRLRSHINPTGTVLLQLENTMQMSLKDLL
B2: A143E (protein)
chain: B1 chain with I140K, A143E
B3: P146A (protein)
chain: B1 chain with I140K, P146A
B4: G144C (protein)
chain: B1 chain with I140K, G144C
B5: A143G (protein)
chain: B1 chain with I140K, A143G
B6: K140R (protein)
chain: B1 chain with I140R
B7: T141S (protein)
chain: B1 chain with I140K, T141S
B8: K140N (protein)
chain: B1 chain with I140N
B9: G144R (protein)
chain: B1 chain with I140K, G144R
B10: F145V (protein)
chain: B1 chain with I140K, F145V
B11: G144A (protein)
chain: B1 chain with I140K, G144A
B12: F145C (protein)
chain: B1 chain with I140K, F145C
B13: F145Y (protein)
chain: B1 chain with I140K, F145Y
B14: G144S (protein)
chain: B1 chain with I140K, G144S
B15: K140Q (protein)
chain: B1 chain with I140Q
B16: F145L (protein)
chain: B1 chain with I140K, F145L

System: mutant form of α-Gal A expressed in HEK-293 cells
Experiment: HEK assay (GLP HEK / Migalastat Amenability Assay): α-Gal A activity in lysates of transiently transfected HEK-293 cells incubated with or without 10 μM migalastat
Assay type: cell-based, human
Settings: 10 μM migalastat versus baseline
In short: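 HEK-293 cells transiently transfected with mutant α-Gal A and incubated with or without 10 μM migalastat; lysate activity given as nmol free 4-MU released per mg protein per hour. Values are mean±SEM.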

Molecule | Absolute increase (% WT)
B1 | 49.4
B2 | 11.4
B3 | 25.4
B4 | 7.1
B5 | 51.9
B6 | 39.4
B7 | 34.4
B8 | 40.3
B9 | 37.7
B10 | 5.7
B11 | 15.5
B12 | 25.7
B13 | 23.5
B14 | 30.4
B15 | 42.5
B16 | 61.8

Same assay, conditions: 10 μM migalastat α-Gal A activity relative to baseline

Molecule | Relative increase
B1 | 2.1
B2 | 1.5
B3 | 1.6
B4 | 3.9
B5 | 1.8
B6 | 1.3
B7 | 1.5
B8 | 1.4
B9 | 2.0
B11 | 1.3
B12 | 14.4
B13 | 1.2
B14 | 1.6
B15 | 1.4
B16 | 5.5

Same assay, conditions: 10 μM migalastat, 5 days; percentage of baseline wild-type α-Gal A activity; mean ± SEM

Molecule | 10 μM migalastat α-Gal A activity (% WT)
B1 | 92.1 ± 7.1
B2 | 37.3 ± 1.8
B3 | 64.1 ± 4.4
B4 | 9.5 ± 0.8
B5 | 119.7 ± 5.9
B6 | 180.9 ± 15
B7 | 98.2 ± 9.1
B8 | 154.1 ± 11.1
B9 | 73.4 ± 6.5
B10 | 5.7 ± 0.6
B11 | 60.4 ± 2.8
B12 | 27.8 ± 0.8
B13 | 131.7 ± 5.1
B14 | 78 ± 5.6
B15 | 165.7 ± 9.7
B16 | 75.7 ± 2.9

Same assay, conditions: absence of migalastat; mean activity below the limit of detection (<142 nmol/mg/hr)

Molecule | Baseline α-Gal A activity (nmol/mg/hr)
B10 | BLD (“BLD” indicates that the mean α-Gal A activity was below the limit of detection (<142 nmol/mg/hr))

Same assay, conditions: absence of migalastat; percentage of baseline wild-type α-Gal A activity; mean ± SEM

Molecule | Baseline α-Gal A activity (% WT)
B1 | 42.7 ± 3.3
B2 | 25.9 ± 1.5
B3 | 38.7 ± 2.5
B4 | 2.5 ± 0.2
B5 | 67.8 ± 3.4
B6 | 141.5 ± 12
B7 | 63.8 ± 7.1
B8 | 113.8 ± 9.5
B9 | 35.7 ± 2.8
B11 | 44.9 ± 3.6
B12 | 2.1 ± 0.2
B13 | 108.1 ± 6.2
B14 | 47.6 ± 2.4
B15 | 123.2 ± 12.1
B16 | 13.9 ± 0.8

Same assay, conditions: lysates of HEK-293 cells transfected with the mutant form, incubated 5 days in the absence of migalastat; mean ± SEM

Molecule | Baseline α-Gal A activity [nmol/mg/h]
B1 | 15415 ± 1294
B2 | 7681 ± 439
B3 | 15393 ± 1271
B4 | 759 ± 69
B5 | 20419 ± 1260
B6 | 50348 ± 3558
B7 | 22602 ± 2254
B8 | 40575 ± 2928
B9 | 10574 ± 838
B11 | 20304 ± 1590
B12 | 768 ± 54
B13 | 41985 ± 2942
B14 | 14190 ± 967
B15 | 42995 ± 3236
B16 | 5455 ± 412

Same assay, conditions: lysates of HEK-293 cells transfected with the mutant form, incubated 5 days with 10 μM migalastat; mean ± SEM

Molecule | 10 μM migalastat α-Gal A activity [nmol/mg/h]
B1 | 32440 ± 2092
B2 | 11458 ± 884
B3 | 25029 ± 1628
B4 | 2988 ± 262
B5 | 36821 ± 2997
B6 | 62820 ± 3401
B7 | 34806 ± 2770
B8 | 54681 ± 3030
B9 | 21406 ± 1764
B10 | 2359 ± 333
B11 | 27268 ± 1039
B12 | 11083 ± 678
B13 | 51524 ± 2970
B14 | 23153 ± 1847
B15 | 59162 ± 3600
B16 | 29794 ± 1799
